Data reported in patent publication US20040265961A1 (published 2004).
Values belong to the molecule of their own block, whether it stands above or below them.

Key:
[1] = test system: T1, hKSR-2-FLAG (full-length human KSR-2 with the FLAG epitope at its carboxyl terminus)
T1 sequence: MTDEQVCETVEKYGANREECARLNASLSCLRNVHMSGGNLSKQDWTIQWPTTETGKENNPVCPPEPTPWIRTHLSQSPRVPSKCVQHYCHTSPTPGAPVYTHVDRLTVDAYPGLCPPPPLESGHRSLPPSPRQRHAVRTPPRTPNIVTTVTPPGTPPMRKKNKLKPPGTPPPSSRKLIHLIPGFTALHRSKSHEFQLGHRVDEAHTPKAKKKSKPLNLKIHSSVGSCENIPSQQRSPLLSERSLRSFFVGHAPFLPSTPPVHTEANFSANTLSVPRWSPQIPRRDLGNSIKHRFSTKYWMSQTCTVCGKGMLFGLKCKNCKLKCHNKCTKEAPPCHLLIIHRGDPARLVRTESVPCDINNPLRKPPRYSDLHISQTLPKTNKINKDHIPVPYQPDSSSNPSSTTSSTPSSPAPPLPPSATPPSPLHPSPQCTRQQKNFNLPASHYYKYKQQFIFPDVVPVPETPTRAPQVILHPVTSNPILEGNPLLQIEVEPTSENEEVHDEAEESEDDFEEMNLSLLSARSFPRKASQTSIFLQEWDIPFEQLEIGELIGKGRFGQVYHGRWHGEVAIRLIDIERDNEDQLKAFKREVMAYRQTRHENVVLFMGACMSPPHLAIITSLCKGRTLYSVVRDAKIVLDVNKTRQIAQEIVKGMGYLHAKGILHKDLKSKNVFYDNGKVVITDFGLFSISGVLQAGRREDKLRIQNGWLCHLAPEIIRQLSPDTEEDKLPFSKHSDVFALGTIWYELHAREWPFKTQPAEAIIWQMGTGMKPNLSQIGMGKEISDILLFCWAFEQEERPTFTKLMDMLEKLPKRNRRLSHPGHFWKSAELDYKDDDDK

[2] = molecular target: T2, hKSR-2-FLAG (full-length human KSR-2 with the FLAG epitope at its carboxyl terminus) (human, UniProt Q6VAB6 122-950, limits assumed); assay: anti-FLAG immunoprecipitation from KSR-2-FLAG-transfected 293T lysate (about 1 mg protein), Western blot with commercial antibodies
T2 construct: Expressed in 293T cells from pcDNA-DEST-40; Tested in cell lysates, or eluted from anti-FLAG beads with FLAG peptide for the kinase assay
T2 sequence: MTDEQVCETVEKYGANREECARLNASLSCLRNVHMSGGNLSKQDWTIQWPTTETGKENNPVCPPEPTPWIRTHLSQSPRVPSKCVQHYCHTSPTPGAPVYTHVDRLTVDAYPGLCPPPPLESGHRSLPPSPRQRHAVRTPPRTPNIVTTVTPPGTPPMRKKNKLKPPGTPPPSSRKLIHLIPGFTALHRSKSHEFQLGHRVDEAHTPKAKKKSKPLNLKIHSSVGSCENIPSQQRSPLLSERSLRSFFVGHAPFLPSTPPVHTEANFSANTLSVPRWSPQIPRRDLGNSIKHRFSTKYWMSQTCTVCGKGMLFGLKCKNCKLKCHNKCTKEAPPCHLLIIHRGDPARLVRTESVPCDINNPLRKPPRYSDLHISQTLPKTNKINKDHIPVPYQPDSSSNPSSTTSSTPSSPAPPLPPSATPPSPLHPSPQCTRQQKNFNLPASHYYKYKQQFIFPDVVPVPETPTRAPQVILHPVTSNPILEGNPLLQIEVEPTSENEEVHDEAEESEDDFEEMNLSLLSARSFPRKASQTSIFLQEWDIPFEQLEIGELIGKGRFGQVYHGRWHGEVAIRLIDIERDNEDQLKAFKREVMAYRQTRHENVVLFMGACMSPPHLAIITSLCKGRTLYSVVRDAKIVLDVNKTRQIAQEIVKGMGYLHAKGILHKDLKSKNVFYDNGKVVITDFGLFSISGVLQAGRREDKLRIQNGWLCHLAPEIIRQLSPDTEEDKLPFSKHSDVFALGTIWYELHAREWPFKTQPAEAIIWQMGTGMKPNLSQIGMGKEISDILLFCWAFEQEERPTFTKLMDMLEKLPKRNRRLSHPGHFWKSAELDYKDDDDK
Method: To identify proteins that interact with human KSR-2, 293T cells were transfected with KSR-2-FLAG as described above. Cells transfected with FLAG vector alone served as a control. Cells were lysed as described above 48 h posttransfection. Protein concentrations were determined using the BCA protein assay. Cell lysates containing approximately 1 mg protein were subjected to anti-FLAG antibody immunoprecipitation followed by electrophoresis on a 2D gel resolved in only one dimension. The proteins were then transferred to nitrocellulose membranes and probed with various commercially available antibodies (Cell Signaling Technology, Beverly, Mass.) using the MN20SL Miniblotter (Immunetics, Cambridge, Mass.).

[3] = molecular target: T3, hKSR-2-FLAG (full-length human KSR-2 with the FLAG epitope at its carboxyl terminus)
T3 chain: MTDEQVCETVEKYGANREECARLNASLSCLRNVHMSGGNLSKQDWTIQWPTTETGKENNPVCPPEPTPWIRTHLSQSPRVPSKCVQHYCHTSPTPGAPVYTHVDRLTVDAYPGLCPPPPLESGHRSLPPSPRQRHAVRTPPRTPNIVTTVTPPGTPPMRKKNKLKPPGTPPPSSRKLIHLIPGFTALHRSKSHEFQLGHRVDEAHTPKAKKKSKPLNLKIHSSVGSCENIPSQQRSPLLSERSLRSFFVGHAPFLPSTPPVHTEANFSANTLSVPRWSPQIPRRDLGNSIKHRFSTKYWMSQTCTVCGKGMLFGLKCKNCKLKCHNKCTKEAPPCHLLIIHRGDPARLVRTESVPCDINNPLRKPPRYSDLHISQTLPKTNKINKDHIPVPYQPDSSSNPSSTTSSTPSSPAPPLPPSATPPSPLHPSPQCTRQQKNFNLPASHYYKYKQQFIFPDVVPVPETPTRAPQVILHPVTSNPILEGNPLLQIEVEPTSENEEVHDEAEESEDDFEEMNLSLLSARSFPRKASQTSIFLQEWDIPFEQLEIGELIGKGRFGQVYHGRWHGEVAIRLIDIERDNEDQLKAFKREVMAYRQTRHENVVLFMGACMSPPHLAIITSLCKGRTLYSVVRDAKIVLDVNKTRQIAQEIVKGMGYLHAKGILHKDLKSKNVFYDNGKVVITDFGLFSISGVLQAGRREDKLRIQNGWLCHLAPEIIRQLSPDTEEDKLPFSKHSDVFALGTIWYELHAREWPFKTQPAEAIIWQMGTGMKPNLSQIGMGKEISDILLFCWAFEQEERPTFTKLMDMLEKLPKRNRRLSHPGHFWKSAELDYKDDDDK

Molecule: Raf enzyme (Upstate Biotechnology, Inc.)
- Raf kinase activity (in vitro kinase assay, 33P phosphorylation of GST-MEK1-His6) [1]: Raf kinase activity was upregulated

- binding result [2]: no binding
B1: P.SEK1 (enzyme, UniProt P45985 2-399, looked up)
chain: AAPSPSGGGGSGGGSGSGTPGPVGSPAPGHPAVSSMQGKRKALKLNFANPPFKSTARFTLNPNPTGVQNPHIERLRTHSIESSGKLKISPEQHWDFTAEDLKDLGEIGRGAYGSVNKMVHKPSGQIMAVKRIRSTVDEKEQKQLLMDLDVVMRSSDCPYIVQFYGALFREGDCWICMELMSTSFDKFYKYVYSVLDDVIPEEILGKITLATVKALNHLKENLKIIHRDIKPSNILLDRSGNIKLCDFGISGQLVDSIAKTRDAGCRPYMAPERIDPSASRQGYDVRSDVWSLGITLYELATGRFPYPKWNSVFDQLTQVVKGDPPQLSNSEEREFSPSFINFVNLCLTKDESKRPKYKELLKHPFILMYEERAVEVACYVCKILDQMPATPSSPMYVD
modifications: phosphorylated (sites not given)
notes: Endogenous protein of 293T cells, probed with a commercial antibody; also called phosphorylated SEK1

B2: purified recombinant Cot/Tp12 (protein)
chain: MENLYASEEPAVYEPSLMTMCQDSNQNDERSKSLLLSGQEVPWLSSVRYGTVEDLLAFANHISNTAKHFYGQRPQESGILLNMVITPQNGRYQIDSDVLLIPWKLTYRNIGSDFIPRGAFGKVYLAQDIKTKKRMACKLIPVDQFKPSDVEIQACFRHENIAELYGAVLWGETVHLFMEAGEGGSVLEKLESCGPMREFEIIWVTKHVLKGLDFLHSKKVIHHDIKPSNIVFMSTKAVLVDFGLSVQMTEDVYFPKDLRGTEIYMSPEVILCRGHSTKADIYSLGATLIHMQTGTPPWVKRYPRSAYPSYLYIIHKQAPPLEDIADDCSPGMRELIEASLERNPNHRPRAADLLKHEALNPPREDQPR
- Cot/Tp12 kinase activity (in vitro kinase assay, 33P phosphorylation of GST-MEK1-His6) [3]: KSR-2 reduced Cot/Tp12 kinase activity in a dose-dependent manner
